Consider 11 molecules from patent publication US20240358849A1 (SUZHOU FUSE BIOSCIENCES, published 2024).

For test [1], the target named is Fc receptor CD64, Avi-tagged (UniProt P12314). The test is described as follows: BLI, Avi-tagged receptor on streptavidin sensor; IgG complexed with TNFα. Background: In BLI a coated tip is dipped into the sample, and binding shifts an interference pattern.
The target of test [2] is T1, human Fibroblast Activation Protein (FAP), soluble antigen (human, UniProt Q12884 26-760, biotinylated when immobilized on streptavidin sensors).
T1 construct: also called hFAP; biotinylated FAP
The test is described as follows: Affinity (nM), Table 13B.

Test [3] deals with T2, IL-2hex, mutant human IL-2 (deltaA1/T3A/F42A/Y45A/L72G/C125S) (human, UniProt P60568 22-153).
T2 chain: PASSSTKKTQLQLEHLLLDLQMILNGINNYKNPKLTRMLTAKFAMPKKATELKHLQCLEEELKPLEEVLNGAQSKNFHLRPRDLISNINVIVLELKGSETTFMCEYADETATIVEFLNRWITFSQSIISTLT
The test is described as follows: Affinity (nM), Table 13B.

Test [4] addresses T1, human Fibroblast Activation Protein …. Nature of the test: BLI per 6.1.3.
The target of test [5] is T2, IL-2hex, mutant human IL-2 …. The test is described as follows: BLI per 6.1.3; column head IL-2 KD.
The target is the same in test [6]. The test is described as follows: cell-based or functional assay.
Test [7] concerns the target T3, human FAP expressed on cells (HEK 293T-hFAP-E5; ExpiCHO-hFAP) (human, UniProt Q12884 1-760). The test is described as follows: cell-based or functional assay.
Test [8] concerns the target T1, human Fibroblast Activation Protein …. The test is described as follows: not stated (legend of FIG. 18B).
Test [9] shares this target. The test is described as follows: bio-layer interferometry; the legend paragraph 249 gives the pair as B10 and FAP; which of the two is loaded on the sensor is not told.
Test [10] concerns the target T3, human FAP expressed on cells (HEK …). The test is described as follows: flow cytometry, 1 µg/mL antibody. For orientation: Flow cytometry measures light scatter and fluorescence of single cells or particles in a stream.
In test [11] the target is T1, human Fibroblast Activation Protein …. Nature of the test: not stated (legend of FIG. 13A).
Test [12] deals with T2, IL-2hex, mutant human IL-2 …. The test is described as follows: not stated (legend of FIG. 7C).
Test [13] concerns the target T1, human Fibroblast Activation Protein …. Nature of the test: BLI per 6.1.3, human FAP.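 Also: biolayer interferometry with immobilized antigen on sensors, antibody association up to 240 s then dissociation up to 420 s, reference-subtracted, global 1:1 fit with unlinked Rmax.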
The target is the same in test [14]. Nature of the test: BLI (Gator), biotinylated FAP on streptavidin sensor.
The target is the same in test [15]. The test is described as follows: BLI; Table 11, antibody variants (Fab/scFv).
The target in test [16] is T4, human interleukin-2 (IL-2), wild type (human, UniProt P60568 21-153, biotinylated when immobilized).
T4 construct: also called biotinylated IL-2; IL2 WT
T4 sequence (P60568 21-153): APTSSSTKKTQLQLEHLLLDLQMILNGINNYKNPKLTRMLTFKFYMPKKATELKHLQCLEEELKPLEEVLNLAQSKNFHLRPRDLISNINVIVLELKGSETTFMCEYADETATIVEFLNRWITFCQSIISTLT
Nature of the test: BLI; Table 11 (N.B. = no detectable binding).

The target in test [17] is T2, IL-2hex, mutant human IL-2 …. Nature of the test: not stated (legend of FIG. 7B).
The target in test [18] is T1, human Fibroblast Activation Protein …. The test is described as follows: BLI; Table 11, single domain.
Test [19] concerns the target human FAP expressed on cells (HEK 293T-hFAP-E5; ExpiCHO-hFAP) (human) (UniProt Q12884). Nature of the test: cell-based or functional assay.

Where only a bound is given, the exact number is not on record here.

Fc receptor CD64, Avi-tagged, sequence (P12314 16-288 limits assumed): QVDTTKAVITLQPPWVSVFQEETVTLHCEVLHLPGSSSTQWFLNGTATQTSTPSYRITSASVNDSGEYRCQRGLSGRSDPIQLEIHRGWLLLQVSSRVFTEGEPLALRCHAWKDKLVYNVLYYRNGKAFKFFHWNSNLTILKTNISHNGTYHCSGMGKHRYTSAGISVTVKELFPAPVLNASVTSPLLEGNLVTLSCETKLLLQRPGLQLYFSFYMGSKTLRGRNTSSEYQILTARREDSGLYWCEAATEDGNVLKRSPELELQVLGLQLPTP

In [1], “Certolizumab IgG, wild-type IgG1 Fc (antibody)” came in with a CD64 Binding (% of wild-type Certolizumab-IgG1) of 100%.

B1: D029 HV2LV3 (bispecific antibody, V domains shown)
VH: EVQLVESGGGLVQPGGSLRLSCAASGFTFTWFFMSWVRQAPGKGLEWVSWIGPSGLYTDYADSVKGRFTISRDNSKNTLYLQMNSLRAEDTAVYYCARSQYGRYYSPDYYFDYWGQGTLVTVSS
VL: DIQMTQSPSSLSASVGDRVTITCRASGALGFYLNWYQQKPGKAPKLLIYAASSLSSGVPSRFSGSGSGTDFTLTISSLQPEDFATYYCQQGRTPPFTFGQGTKVEIKR
notes: also called Rev1-Q27G:L96F/S55L:S32F; two-in-one antibody within FB-675
For the molecule B1, the Kd (usually a measure of binding affinity in units of concentration) in test [2] was 3.7 nM; in test [3] it was 217 nM; in test [4], 3.66 nM; in test [5], 217 nM; in [8] it was ~3.66 nM. Further, the “EC50 of HEK-Blue IL2 assay (pM) with HEK 293T; variant as masking moiety of a configuration 3 immunoconjugate” value in [6] is 5300 pM. For the same molecule, the “EC50 of HEK-Blue IL2 assay (pM) with HEK 293T-hFAP-E5; variant as masking moiety of a configuration 3 immunoconjugate” value in [7] came to 31 pM.

B2: two-in-one antibody B10 (bispecific antibody, V domains shown)
VH: EVQLVESGGGLVQPGGSLRLSCAASGFTFSRYSMGWVRQAPGKGLEWVSTIHSHGSGTRYADSVKGRFTISRDNSKNTLYLQMNSLRAEDTAVYYCARSQYGRYYSPDYYFDYWGQGTLVTVSS
VL: DIQMTQSPSSLSASVGDRVTITCRASQNIARYLNWYQQKPGKAPKLLIYAASSLQSGVPSRFSGSGSGTDFTLTISSLQPEDFATYYCQQGRYSPFTFGQGTKVEIKR
For the molecule B2, the binding result in [9] and in test [10] was “binds” each time.

B3: scFv70, scFv derived from antibody 872-70 (scFv, V domains shown)
VH: EVQLVESGGGLVQPGGSLRLSCAASGFTFSRYSMSWVRQAPGKGLEWVSYITSTDGTTDYADSVKGRFTISRDNSKNTLYLQMNSLRAEDTAVYYCARSQYGRYYSPDYYFDYWGQGTLVTVSS
VL: DIQMTQSPSSLSASVGDRVTITCRASQSISSYLNWYQQKPGKAPKLLIYAASSLQSGVPSRFSGSGSGTDFTLTISSLQPEDFATYYCQQSRTSPYTFGQGTKVEIKR
notes: Single chain; also called scFv872-70
For the molecule B3, the dissociation constant (Kd) in test [11] is ~1 nM.

B4: D029 mutant Fab of FB-559 (D029HV1 with D029 VL) (bispecific antibody, V domains shown)
VH: EVQLVESGGGLVQPGGSLRLSCAASGFTFTWSFMSWVRQAPGKGLEWVSWIGPSGLYTDYADSVKGRFTISRDNSKNTLYLQMNSLRAEDTAVYYCARSQYGRYYSPDYYFDYWGQGTLVTVSS
VL: DIQMTQSPSSLSASVGDRVTITCRASQDGGNYLNWYQQKPGKAPKLLIYGASTLYSGVPSRFSGSGSGTDFTLTISSLQPEDFATYYCQQGRTPPLTFGQGTKVEIKR
notes: The legend says only 'D029 mutant'
Take B4: the dissociation constant Kd in test [12] was ~400 nM.

B5: anti-FAP antibody 872-5 (antibody, V domains shown)
VH: EVQLVESGGGLVQPGGSLRLSCAASGFTFRGYIMSWVRQAPGKGLEWVSWISPEGSRTGYADSVKGRFTISRDNSKNTLYLQMNSLRAEDTAVYYCARLQYGTWFDYWGQGTLVTVSS
VL: DIQMTQSPSSLSASVGDRVTITCRASQSISSYLNWYQQKPGKAPKLLIYAASSLQSGVPSRFSGSGSGTDFTLTISSLQPEDFATYYCQQATLLLPTFGQGTKVEIKR
notes: monovalent Fab-Fc (knob-in-hole) for KD per 6.1.3; also called IgG 5; FAP5
Regarding B5, in test [13], the equilibrium dissociation constant (Kd) is 7.3 nM, the koff (commonly the rate constant with which the complex falls apart) came to 0.00201 s⁻¹ and the kon (usually a measure of how fast the partners come together) worked out at 277000 M⁻¹ s⁻¹. Besides, in [14], binding was characterised by a dissociation constant (Kd) of 6.6 nM, the off-rate (koff) was 0.0028 s⁻¹ and the kon turned out to be 420000 M⁻¹ s⁻¹. In test [15], this molecule returned a Kd of 7 nM. Moreover, in test [16], the binding result is “no binding”.

B6: two-in-one antibody D047 (bispecific antibody, V domains shown)
VH: EVQLVESGGGLVQPGGSLRLSCAASGFTFHYFSMSWVRQAPGKGLEWVSSISPTYGTTDYADSVKGRFTISRDNSKNTLYLQMNSLRAEDTAVYYCARLLYGTWFDYWGQGTLVTVSS
VL: DIQMTQSPSSLSASVGDRVTITCRASQGIKNYLNWYQQKPGKAPKLLIYAASSLQSGVPSRFSGSGSGTDFTLTISSLQPEDFATYYCQQGSYLQPTFGQGTKVEIKR
notes: Fab in FB-476
For B6, the binding result in test [10] is reported as “binds”. Moreover, the Kd in test [17] is ~20 nM.

B7: scFv5, scFv derived from antibody 872-5 (scFv, V domains shown)
VH: EVQLVESGGGLVQPGGSLRLSCAASGFTFRGYIMSWVRQAPGKGLEWVSWISPEGSRTGYADSVKGRFTISRDNSKNTLYLQMNSLRAEDTAVYYCARLQYGTWFDYWGQGTLVTVSS
VL: DIQMTQSPSSLSASVGDRVTITCRASQSISSYLNWYQQKPGKAPKLLIYAASSLQSGVPSRFSGSGSGTDFTLTISSLQPEDFATYYCQQATLLLPTFGQGTKVEIKR
notes: Single chain; also called scFv872-5
On to B7, for which the dissociation constant Kd in test [11] is ~5 nM.

B8: single domain anti-FAP antibody VHH6 (VHH)
VHH: EVQLVESGGGLVQPGGSLRLSCAASGFTFTPTYMYWVRQAPGKGLEWVSAIDPYGRTEYPDSVKGRFTISRDNAKNTLYLQMNSLRPEDTAVYYCAVRVPPGVYTYYRTGPYDYWGQGTLVTVSS
Regarding B8, the binding result in test [10] is on record as “binds”; in [16], “no binding”; in [18], “binds”.

B9: immunoconjugate of configuration 3 with IL-2 polypeptide, D002 Fab and 872-70 scFv (Fc fusion, part only; not given: CH1, Fc subunits, linkers, part only)
chain, part: EVQLVESGGGLVQPGGSLRLSCAASGFTFSRYSMSWVRQAPGKGLEWVSYITSTDGTTDYADSVKGRFTISRDNSKNTLYLQMNSLRAEDTAVYYCARSQYGRYYSPDYYFDYWGQGTLVTVSSDIQMTQSPSSLSASVGDRVTITCRASQSISSYLNWYQQKPGKAPKLLIYAASSLQSGVPSRFSGSGSGTDFTLTISSLQPEDFATYYCQQSRTSPYTFGQGTKVEIKRTVAPASSSTKKTQLQLEHLLLDLQMILNGINNYKNPKLTRMLTAKFAMPKKATELKHLQCLEEELKPLEEVLNGAQSKNFHLRPRDLISNINVIVLELKGSETTFMCEYADETATIVEFLNRWITFSQSIISTLT
heavy, part: EVQLVESGGGLVQPGGSLRLSCAASGFTFSRYSMSWVRQAPGKGLEWVSDISSYSTTYYADSVKGRFTISRDNSKNTLYLQMNSLRAEDTAVYYCARSQYGRYYSPDYYFDYWGQGTLVTVSS
light, part: DIQMTQSPSSLSASVGDRVTITCRASQSIGNSLNWYQQKPGKAPKLLIYAASSLQSGVPSRFSGSGSGTDFTLTISSLQPEDFATYYCQQGRRSPFTFGQGTKVEIKRTVA
On to B9, for which, in test [19], the enhancement of EC50, HEK-Blue IL-2 reporter, with FAP-expressing cells is < 200 fold.

B10: immunoconjugate of configuration 3 with IL-2 polypeptide, D002 Fab and 872-5 scFv (Fc fusion, part only; not given: CH1, Fc subunits, linkers, part only)
chain, part: EVQLVESGGGLVQPGGSLRLSCAASGFTFRGYIMSWVRQAPGKGLEWVSWISPEGSRTGYADSVKGRFTISRDNSKNTLYLQMNSLRAEDTAVYYCARLQYGTWFDYWGQGTLVTVSSDIQMTQSPSSLSASVGDRVTITCRASQSISSYLNWYQQKPGKAPKLLIYAASSLQSGVPSRFSGSGSGTDFTLTISSLQPEDFATYYCQQATLLLPTFGQGTKVEIKRTVAPASSSTKKTQLQLEHLLLDLQMILNGINNYKNPKLTRMLTAKFAMPKKATELKHLQCLEEELKPLEEVLNGAQSKNFHLRPRDLISNINVIVLELKGSETTFMCEYADETATIVEFLNRWITFSQSIISTLT
heavy, part: EVQLVESGGGLVQPGGSLRLSCAASGFTFSRYSMSWVRQAPGKGLEWVSDISSYSTTYYADSVKGRFTISRDNSKNTLYLQMNSLRAEDTAVYYCARSQYGRYYSPDYYFDYWGQGTLVTVSS
light, part: DIQMTQSPSSLSASVGDRVTITCRASQSIGNSLNWYQQKPGKAPKLLIYAASSLQSGVPSRFSGSGSGTDFTLTISSLQPEDFATYYCQQGRRSPFTFGQGTKVEIKRTVA
Consider B10, for which the enhancement of EC50, HEK-Blue IL-2 reporter, with FAP-expressing cells in test [19] is < 200 fold.
